# From patent publication US6825325 (FRAUNHOFER GESELLSCHAFT ZUR FORDERUNG DER ANGEWANDTEN …, dated 2004)
# Tests used:
# [1] = target: bacterially expressed GST-protein alone (Schistosoma japonicum, UniProt P08515 1-218 = GST); assay: ELISA of scFvs (member of the panel of 10)
# [2] = target: T1, GST-30K fusion protein (bacterially expressed 30K TMV movement protein fused to GST) (Schistosoma japonicum; Tobacco mosaic …, UniProt P03583 1-268); assay: ELISA of scFvs (member of the panel of 10)
# T1 construct: not shown: glutathione S-transferase, Schistosoma japonicum (Pharmacia GST-System)
# T1 sequence (looked up): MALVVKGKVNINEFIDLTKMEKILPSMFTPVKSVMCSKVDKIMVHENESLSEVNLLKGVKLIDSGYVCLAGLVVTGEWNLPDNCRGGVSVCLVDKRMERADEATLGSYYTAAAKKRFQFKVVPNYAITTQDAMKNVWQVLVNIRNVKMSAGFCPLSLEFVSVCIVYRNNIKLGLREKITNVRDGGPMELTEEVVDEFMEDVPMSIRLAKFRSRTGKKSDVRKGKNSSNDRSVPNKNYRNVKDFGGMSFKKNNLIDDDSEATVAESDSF
# bacterially expressed GST-protein alone, sequence (P08515 whole entry, the tested form may be a part): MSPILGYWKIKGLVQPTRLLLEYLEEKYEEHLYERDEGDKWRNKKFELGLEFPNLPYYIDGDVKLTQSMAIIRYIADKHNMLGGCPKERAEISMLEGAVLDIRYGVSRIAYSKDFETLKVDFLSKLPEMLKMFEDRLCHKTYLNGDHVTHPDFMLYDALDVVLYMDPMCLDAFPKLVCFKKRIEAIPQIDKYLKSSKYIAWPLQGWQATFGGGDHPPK
binder,measurement,setting,value
"scFv 30-2 (scFv, also called 30K specific scFv No. 2; scFv 30K-2) scFv: EVKLQQSGAELVKPGASVKISCKASDYSFTGYNMNWVKQSHGKSLEWIGNINPYYGSTSYNQKFKGKATLTVDKSSSTAYMQLNSLTSEDSAVYYCAVGGNYVDWFAYWGQGTLVTVSSGGGGSGGGGSGGGGSDILLTQSPLSLPVSLGDHASISCRSSQSLVHSNGNTYLHWYLQNPGQSPKLLIYKVSNRFSGIPDRFSGSGSGTDFTLKISRVEAEDLGVYFCSQSTHVPYTFGGGTKLELKRAVDAAAEQKLISEEDLNGAA",binding result,[1],no binding
same,binding result,[2],binds
